According to patent publication US20240415884A1:

Target: T1, CD276 expressed on cells (Du145, PC3, CD276+ 293T, CHO-K1-CD276-Luci cells) (human) (UniProt Q5ZPR3)
T1 sequence (looked up): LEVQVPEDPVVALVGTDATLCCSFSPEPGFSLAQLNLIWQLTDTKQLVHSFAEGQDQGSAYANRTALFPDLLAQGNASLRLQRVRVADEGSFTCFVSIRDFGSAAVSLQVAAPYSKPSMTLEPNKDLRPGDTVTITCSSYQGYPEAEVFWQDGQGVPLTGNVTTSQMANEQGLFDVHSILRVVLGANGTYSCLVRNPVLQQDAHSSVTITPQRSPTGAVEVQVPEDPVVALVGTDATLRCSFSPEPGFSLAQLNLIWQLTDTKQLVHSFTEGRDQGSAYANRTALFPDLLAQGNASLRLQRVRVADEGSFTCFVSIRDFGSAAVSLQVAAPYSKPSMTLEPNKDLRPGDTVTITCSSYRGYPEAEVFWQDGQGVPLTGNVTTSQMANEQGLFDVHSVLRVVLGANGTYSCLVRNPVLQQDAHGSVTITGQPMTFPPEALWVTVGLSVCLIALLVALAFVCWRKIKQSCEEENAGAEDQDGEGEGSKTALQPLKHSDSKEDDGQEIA

EC50 (read off the curve), percent lysis: 8 nM
B1: BiTE #5 (bispecific antibody, part only; not given: anti-CD3 scFv, part only)
chain, part: EVQLVESGGGLVQPGGSLRLSCAASPFPFTIYEMSWVRQASGKALEWIGYINHSGSTNYNPSLKSRVTISRDNSKNTLYLQMNSLRAEDTAMYYCAILAPDYWGQGTLVTVSSGGGGSGGGGSGGGGS
